Data taken from US20210155691A1, “METHODS OF PREVENTING OR TREATING NON-HEMATOPOIETIC SLAMF7 POSITIVE AND SLAMF7 NEGATIVE CANCERS” (ADAERATA, LIMITED PARTNERSHIP, priority 2018, published 2021).

What was measured:
thymocytes = experiment: Induction of apoptosis in thymocytes (annexin V); type: cell-based, mouse; conditions: 1 μM; 10 hours at 37° C.; thymocytes from C57BL/6 mice; data not shown
[1] = target: T1, mouse CD11b (integrin alphaM, alpha subunit of Mac-1) (mouse, UniProt P05555 17-1153); experiment: anti-CD11b immunoprecipitation from BMDM lysates, mass spectrometry
T1 construct: whole, on cells; Endogenous protein in macrophage lysates; It forms Mac-1 together with CD18; also called Mac-1 (CD11b); CR3 alpha subunit
Description: Authenticated cells. (FIG. 9D) Lysates from the mouse macrophage cell line RAW264.7 expressing GFP alone or in combination with a FLAG-tagged version of mouse SLAMF7 (FLAG-SLAMF7) were immunoprecipitated with anti-FLAG. They were then probed by immunoblotting with anti-CD11b (Mac-1) or anti-SLAMF7. Total cell lysates were analyzed in parallel. (FIG. 9E) Co-localization of SLAMF7 and CD11b in RAW264.7 cells expressing GFP alone or with FLAG-SLAMF7 assessed by immunofluorescence. Semi-confluent RAW264.7 cells expressing GFP alone (bottom) or in combination with FLAG-SLAMF7 (top) were fixed and stained with antibodies against FLAG, CD11b (Mac-1) or CD18, as detailed in Example 1. Staining was detected by confocal microscopy. Scale bar, 5 μm. […] (FIG. 9F) As in FIG. 9E, except that only RAW264.7 cells expressing FLAG-SLAMF7 were analyzed and that antibodies coupled to different fluorophores were used. […] (FIGS. 9G-A and 9G-B) RAW264.7 derivatives expressing GFP alone or in combination with FLAG-SLAMF7 were analyzed by flow cytometry, using antibodies directed against FLAG and SLAMF7 (dotted lines). […]
Immunoprecipitations, mass spectrometry, immunoblots. […] In brief, immunoprecipitated proteins were digested with trypsin (Promega, Madison, Wis.) and analyzed by LC-MS/MS on a LTQ Orbitrap™ Velos (ThermoFisher Scientific, Bremen, Germany) equipped with a Proxeon Nanoelectrospray™ ion source. […]

T1 sequence (P05555 17-1153): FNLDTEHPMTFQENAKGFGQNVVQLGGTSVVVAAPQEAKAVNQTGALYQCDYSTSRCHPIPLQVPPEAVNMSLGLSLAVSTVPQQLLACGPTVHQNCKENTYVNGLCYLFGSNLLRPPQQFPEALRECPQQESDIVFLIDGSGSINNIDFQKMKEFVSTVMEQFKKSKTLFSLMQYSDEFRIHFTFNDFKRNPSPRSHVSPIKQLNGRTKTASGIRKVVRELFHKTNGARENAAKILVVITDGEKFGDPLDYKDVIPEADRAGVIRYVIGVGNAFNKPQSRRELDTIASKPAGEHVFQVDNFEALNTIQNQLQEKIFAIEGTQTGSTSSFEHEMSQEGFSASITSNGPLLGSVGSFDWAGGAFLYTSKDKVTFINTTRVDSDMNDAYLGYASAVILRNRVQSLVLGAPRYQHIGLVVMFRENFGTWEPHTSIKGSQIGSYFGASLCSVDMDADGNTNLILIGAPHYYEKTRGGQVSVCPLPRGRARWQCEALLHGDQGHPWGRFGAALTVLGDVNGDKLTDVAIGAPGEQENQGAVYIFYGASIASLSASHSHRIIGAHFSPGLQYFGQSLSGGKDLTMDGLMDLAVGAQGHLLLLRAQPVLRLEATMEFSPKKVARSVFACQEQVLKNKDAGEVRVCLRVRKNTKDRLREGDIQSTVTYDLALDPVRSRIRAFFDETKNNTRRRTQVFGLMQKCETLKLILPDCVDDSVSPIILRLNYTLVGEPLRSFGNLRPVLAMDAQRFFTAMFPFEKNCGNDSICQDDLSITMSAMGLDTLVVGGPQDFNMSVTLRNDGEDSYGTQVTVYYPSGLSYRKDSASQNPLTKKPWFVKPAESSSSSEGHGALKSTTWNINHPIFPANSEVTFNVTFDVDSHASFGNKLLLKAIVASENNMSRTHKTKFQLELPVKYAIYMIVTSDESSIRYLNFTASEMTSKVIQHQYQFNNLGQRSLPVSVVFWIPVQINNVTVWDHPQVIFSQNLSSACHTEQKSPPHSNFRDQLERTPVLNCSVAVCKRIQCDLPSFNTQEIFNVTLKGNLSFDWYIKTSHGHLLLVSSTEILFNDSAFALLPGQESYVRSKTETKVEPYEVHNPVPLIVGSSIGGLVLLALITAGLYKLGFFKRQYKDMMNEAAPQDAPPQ

Row | Molecule | cells becoming apoptotic (annexin V-positive) (thymocytes) | binding result [1]
1 | C[C@@H]1C[C@H]2[C@@H]3CCC4=CC(=O)C=C[C@]4(C)[C@@]3(F)[C@@H](O)C[C@]2(C)[C@@]1(O)C(=O)CO [dexamethasone] | about 70% | –
2 | mouse CD16 (Fc receptor) (receptor, UniProt P08508 31-261, looked up, whole, on cells; Endogenous protein in macrophage lysates) ALPKAVVKLDPPWIQVLKEDMVTLMCEGTHNPGNSSTQWFHNGRSIRSQVQASYTFKATVNDSGEYRCQMEQTRLSDPVDLGVISDWLLLQTPQRVFLEGETITLRCHSWRNKLLNRISFFHNEKSVRYHHYKSNFSIPKANHSHSGDYYCKGSLGSTQHQSKPVTITVQDPATTSSISLVWYHTAFSLVMCLLFAVDTGLYFYVRRNLQTPREYWRKSLSIRKHQAPQDK | – | no binding
3 | mouse CD64 (Fc receptor) (receptor, UniProt P26151 25-404, looked up, whole, on cells; Endogenous protein in macrophage lysates) EVVNATKAVITLQPPWVSIFQKENVTLWCEGPHLPGDSSTQWFINGTAVQISTPSYSIPEASFQDSGEYRCQIGSSMPSDPVQLQIHNDWLLLQASRRVLTEGEPLALRCHGWKNKLVYNVVFYRNGKSFQFSSDSEVAILKTNLSHSGIYHCSGTGRHRYTSAGVSITVKELFTTPVLRASVSSPFPEGSLVTLNCETNLLLQRPGLQLHFSFYVGSKILEYRNTSSEYHIARAEREDAGFYWCEVATEDSSVLKRSPELELQVLGPQSSAPVWFHILFYLSVGIMFSLNTVLYVKIHRLQREKKYNLEVPLVSEQGKKANSFQQVRSDGVYEEVTATASQTTPKEAPDGPRSSVGDCGPEQPEPLPPSDSTGAQTSQS | – | no binding
